Kd, koff and kon data for 3 substances are collected here from article PMC5006643.

This test deals with pV2α-Tys, tyrosine-sulfated 18-mer V2 mimetic peptide (aa. 168-185 of HIV-1 BaL gp120) (HIV-1 (isolate BaL)). The test can be described thus: SPR.
For the substance “BG505 SOSIP.664 trimer pre-treated with the CD4 mimic CD4-M48U (from UniProt Q2N0S6 1-860; Q2N0S6 1-860) (complex)”, the Kd stood at 161 nM, the koff is 0.005 s⁻¹ and the kon turned out to be 31000 M⁻¹ s⁻¹.
As to “gp120 (BaL) pre-complexed with the CD4 mimic CD4-M48U”, the Kd was 69.1 nM, the koff came out at 0.00334 s⁻¹ and the kon was found to be 48300 M⁻¹ s⁻¹.
Turning to “recombinant monomeric gp120 (HIV-1 strain BaL) (natural protein)”, the Kd was found to be 79.1 nM, the koff amounted to 0.00189 s⁻¹ and the kon was 23900 M⁻¹ s⁻¹.

One may read the Kd as the free concentration of one partner at which half of the binding sites on the other are occupied at equilibrium, for simple one-to-one binding. Read a high Kd as weaker binding. Usually koff stands for the rate constant with which the complex falls apart. Read a high koff as a short-lived complex. The term kon denotes a measure of how fast the partners come together. A lower kon goes with slow association.
